Results taken from article PMC10979912.

Target: Tau (2N4R Tau; Tau(291–391)) 2-441 (UniProt P10636)
Assay: solid-phase ELISA, immobilised fragment, soluble Tau
Settings: reference: unmodified (WT) Tau(291–391)

Tau (2N4R Tau; Tau(291–391)) 291-391 (from UniProt P10636-8) pS305 Tau(291–391)
binding against the reference (sites S305): weaker

Tau (2N4R Tau; Tau(291–391)) 291-391 (from UniProt P10636-8) pS352 Tau(291–391)
binding against the reference (sites S352): weaker

Tau (2N4R Tau; Tau(291–391)) 291-391 (from UniProt P10636-8) pS356 Tau(291–391)
binding against the reference (sites S356): weaker
